For 21 sequences, protein production results are on record in a protein production outcome set (Wang et al. 2014).

A short description of the data set: label from the status in PepcDB records.
As for “MPPSTLGLTPPFDATLLTTRPPCSRRHISRSPGARRPSPGLLTCLQPNVCPRARSAFLAISNGSRQQSGPARADAFHPVSISPFYFYSDSYEDVFMPITTKLKAVSLGVSLALAGLLVGCNQNDSDPLVKDDAYYRGQAEAMVAKLTLGEKLDLLSGPGYGSANGAINVKQDVPGVAGYINGVLRSADGIDIPALKLADGPAGVRINANRDGDSASYYATAWPIGSLLASSWDVKLVKAVGEAMGDEVRQYGVDILLAPGMNIQRNPLNGRNFEYYSEDPLLTGKIGAAMVNGVESNGVGTTIKHYFGNNSETNRNQINDIGEPRTFREIYLRGFQIAVDEAQPWAVMTSYNKVNGTYVNERRDAVTDLLRGEWKFDGLVMSDWFAGDVANNAYKQVLAGQDLIEPGNVKEQLQQSIEHGDLDEAKVNEAAIHILTQVMKSPSYNQLAISNSPDLIAHAKLARQAGAESMVLLRNDAAALPLAASSTLASFGINQINTYKGGTGSGDVNAASTTTIAQGLAARFPVNEALQSYYRDFYENNKVYHEGQFGAKGYYTCAEAPISGDLAALIANAATTQQAAVISIGRQAGEGADRSSGKGDYLLGDDERALIDAVSSAFHAQGKKVVVVLNVNGVIDTAQWSDKVDGILLAYMAGQETGHAVADVLSGAVNPSGKLAQSFPHSYASVPSAGTFPGEDTDGDGEPDDLYYNEGIYVGYRYYSTFEQAVSYPFGFGLSYTSFSYTSPAIASNTLEGGSAGNLVLTATITNTGAVAGKEAAQVYVTAPEVKLKKPLIELKAFAKTAQLAPGASEQLSFTIPASILASFDEASNQWIVEPGRYSAYISPSSDVSASTPVSFTVSKEIVVSNTTPGALALPAGVDPASVTTITR”, the protein production entry is reported as “failed”.
For the sequence “MPLIVSSSIMIHAKLIYTFEDAQLDGQIVAALDVNTVANAVYAHNYGSNLVKTRNIQSLSVKEVTKLQANMLLMSPPCQPHTRQGLQRDTEDKRSDALTH”, the protein production entry was “failed”.
For the sequence “MLEYKKILVPVEGSPKGELALKKAIFVAKRNHAHLDILTVIQSSRFLDVYGHMGSNMDYVEVSLRRAKEYVEDLKDQIKRKYDFEDVEVYVEAGDPKAIIATEMPEKLGTDLIMMGATGLNAFQRAMIGSVADYVTRVALMDVLLVRTELDNLPYSK”, the protein production entry was “failed”.
Regarding “MVRCVRLVEAGSVVRYLSTSICRPVVDAGSRALCLQEWADSQQVKEKQYSRDVQRAAALNIYRIPPSSRKPALCPTPRDRLEYDEDRLEHIAYVRARELHTLEVTGLETVAQSKAHVASLEGLIPEDKVVLLAGSPLQNEATLGQCGVEALTTLEVVGRRLGGNNCLSLQVNPVQPARYLWTTLHSSKQGEPNSSANHRCS”, the protein production result is listed as “failed”.
For “MNFDLYMNGVVEQARNEIESAGYEQLTTAEDVDKVLKQDGTTLVMINSVCGCAGGIARPAASHALHYDVLPDRLVTVFAGQDKEATQRAREYFEGYAPSSPSFALVKDGKITEMIERHQIEGHDVMNVINQLQTLFNKYC” the value was “not failed”; for “MWEIYDAMINGIPEDFLVDELVCGTTHSVIRSGNGVGLGPNRPFETRMPMLTQNLLGLPLRVAAGCVKSWNYVEASIGLAAINAYYNNPQVAREHGVIFSDAKRVEDRMNDPFIMSQNEVKGKKVGVVGHFPHLESLLEPICDLSILEWSPEEGDYPLPASEFILPECDYVYITCASVVDKTLPRLLELSRNARRITLVGPGTPLAPVLFEHGLQELSGFMVKDNARAFRIVAGAEKVKIYSAGQKVTIKK”, “not failed”.
“DRCYNCGGLDHHAKECKLPPQPKKCHFCQSISHMVASCPLKAQQGPSAQG”: the protein production result is recorded as “not failed”.
Under “MKWARPSMHSSAQRKLIMTRILSIIGVSLCIAMLSPVLQAANLKTLDVAALPGDRIELKLAFDAPVPAPRGYTTAQPARIALDLPGVTSQLETKSRELGTGNARSVVVVQAQDRTRVIINLTTLAPYSSRVDGNNLFVVIGQGAAAAQASQPTTAMGAQRVAVPPPAPASARPFIPAGVKAIRNVDFQRGELGEGNVVIDLSNPSIAPDIQEQGGKIRVDFAKTQLPEPLRVRLDVKDFATPVQFVSASATGDKASILIEPSGAFDYSAFQTENKLTISVRPLTNEDLDRRAADKPVYTGEKLSLNFQDIDVRSVLQLIADFTNLNLVASDTVQGGITLRLQNVPWDQALDLVLKTKGLDKRKVGSVLLVAPADEIAARERQELESLKQIAELAPLRRELLQVNYAKAADIAKLFQSVTSAESKAEERGSITVDDRTNNIIAYQTQDRLDELRRIVSQLDIPVRQVMIEARIVEANVDYNKQLGVRWGGSTNTSRNGKWTTYGLDDNGDEGGNTNANLTSNIPFVDLGAADATTGIGLGFVTNNTLLDLELSAMEKTGNGEIVSQPKVVTSDKETAKILKGTEIPYQESSSSGATTVSFKEASLSLEVTPQITPDNRIIMEVKVTKDEPDYLNAVLGVPPIKKNEVNAKVLISDGETIVIGGVFSNTQSKVVDKVPFLGDVPYLGRLFRRDVVSESKSELLVFLTPRIMNNQAISVSR” stands “failed”.
For “MAIARALRDELSFGAVSRRENPVSAHIPYSRHVSDEVIKTQDGMLMSFVHMSGLCFETIDIAEINSRLLGRNDLIRGLANSRYAIYSHIVRREVKPAIESSFENKFCQELDQRYTAALRTQRMFVNDIYLTIVRRELQGTVGTADLVIRKLLGRRAADGRSSSEERALIELTDVMKAVRESLQAYGARVLTVVKRNDVWHSEPLEFLVQLVNGGFPRPMALPRMKLAEALATKRLFFGPNALEIRGAFPGETRYGAIISVGEYPSITGPGMLNPMLKVPHEFIVTQSFAIIDKPQALTQMERVGRKIDMSDEADSIVGDQLGEARDELLSSEALYGLHHLTVLCLGKTMDDVARCVTDVGTALTEVSALWVREDLNCEPAFWATLPGNFAYVARKSMISSKNMAGFSAFHNYPSGRTGGVHWGMPISVLETTSQTAYFFNFHVRDLGNFTLNGPSGSGKTVLLGFLAAQAQRITPRPKLVMIDKDRGLDIFVRSLGGRYEVLKAGEPSGFNPLRLPDTPRNREFLFQLFSFILRRSDGYAHSTREEQVIRNAIAQVASAPPEGRTMEEFAELLRGAMRAGDDDLYSRLQPWMRPDQRGWLFNNAEDSFSMSSIFGFDMTSVLSDATTSTAALLYIFHRIEELLDGQPVMIFLDEGWKLLDNDIFSYFIKDKLKTIRKLNGIIGFGTQSAADIVKSSIANTLIEQTPTNIFFPNPKADEESHRAFGLSEREIKWIRETPPEARKFLIKHDQDSVIARLNLGAMPDAIKILSGRIETVQELDALRARVGDDPDVWLPVFLGRDPE” the value was “failed”.
For “MQTQLTEEMRQNARALEADSILRACVHCGFCTATCPTYQLLGDELDGPRGRIYLIKQVLEGNEVTLKTQEHLDRCLTCRNCETTCPSGVRYHNLLDIGRDIVEQKVKRPLPERILREGLRQVVPRPAVFRALTQVGLVLRPFLPEQVRAKLPAETVKAKPRPPLRHKRRVLMLEGCAQPTLSPNTNAATARVLDRLGISVMPANEAGCCGAVDYHLNAQEKGLARARNNIDAWWPAIEAGAEAILQTASGCGAFVKEYGQMLKNDALYADKARQVSELAVDLVELLREEPLEKLAIRGDKKLAFHCPCTLQHAQKLNGEVEKVLLRLGFTLTDVPDSHLCCGSAGTYALTHPDLARQLRDNKMNALESGKPEMIVTANIGCQTHLASAGRTSVRHWIEIVEQALEKE”, the protein production result is given as “failed”.
Under “MTGEGTNYLIVGSDSRAGMSAEEKKKLHTGSAEGKRTDSMMILHTGDNGSTLVSLPRDSDVEIPTFKGSTSGKTYPGTGRHVKLNAAYAEDGPELLVRTIEYNTGLHIDHYVEIGFAGFANIVDSVGGVEMTLDKGFKDTFSGADFKAGKQTLNGEQALAFVRTRHAFAASDLERTKNQQKFLSALAHQVATPSTVLNPFKLYPTLSSGLDTLIVDKDMGLFDLADMFWAMKGVTGGDGTSMNMPISGSSGGNLVWDKAKVKALVNELKNDEKVTVSGNLEHHHHHH” stands “not failed”; under “ERRLCAILAADMAGYSRLMERNETDVLNRQKLYRRELIDPAIAQAGGQIVKTTGDGMLARFDTAQAALRCALEIQQAMQQREEDTPRKERIQYRIGINIGDIVLEDGDIFGDAVNVAARLEAISEPGAICVSDIVHQITQDRVSEPFTDLGLQKVKNITRPIRVWQWVPDADRDQSHDPQPSHVQH”, “not failed”; under “MPYVPTPKPVVDRMLELADVDETDVLYDLGSGDGRIVIRAARTHGARGVGIEIDPDLVKKARKNAKEAGVADLVEFRQGDLFEADISEATVVTLYLLPSVNQKLRPILFEQLSPGTPVVSHDFDMGRWAPDRTVDLEGDTVYRWTIPEEIPEDLDELEHHHHHH”, “not failed”.
Turning to “MAISIRTMAALSMVGLRGKRDVQQYSEWISQPCRPAMKGFRPGIGPTLVVLLLLPVLVALGFWQLGRGEQKRQLLASYAERRAAEPVALFELLASEDPAFRRVRLHGHFDADHSLLLDNRLHDGKVGVELLQPFLDQASGRWLLVNRGWLPWPDRRTPPVFSTPQQSLSLDAWVYVSPGAAFQLHADPSGASWPRLITAVGPQALWAELGRSGFDHEVRLESGPGAYLTEWPVVAMGPEKHQAYAVQWFAMALALFALYLYFGWHNTREKRHGNGHESTQHL”, the protein production entry was “failed”.
On to “EMVDDQAMNEQLYYYFDPGDFKPPLVVYFSGFRLALGVEGANMMRALEAPALIFGEQRILGGSFYVGSKKFEQEIVRIIQTTLKKLGFTANQLVLSGLSMGTYASLYY”, for which the protein production entry was “failed”.
“MEGLQRSTISFRRQGSSGIVFDDRLIAELNKSGNNEQKDESQRDEQPKPMSESSEQVKPIDEKDKLRPIKTGGGAPGGIERSRSNGGGAQRHHRTTGRVSPAVDPPSPRISSCGCCSAFGKNPPGKKVNPRKRPPKRRSR”: the protein production entry was “failed”.
For “MKRDRNLTWHRTDALRPNLEGRQVAVIGGTGGIGRALSRHLASLDARVVVVGQTFRDADVPGIRFIQADLSLMHEAQRVAGLLPAQTLDLVIFTTGIFAAPQRQETTEGIERDLAVSYLNRLVMLRAIAPTLGTQRARPAMKPRVFIMGYPGSGQTGAPDDLNAEAPYKAMAAHMNTVAGNEMLVLDAALRYPQATFFGLNPGLIKTGIRDNFFGKGSVKSRIAETLIGWLTPTADTYAQRITPLLMSPDLEGHSGAMFNSKGQAILPSPGLGEAHIRKFMAASEALANRTGIHPIGQEDRP” the value was “failed”; for “MRRKNLFWDDVYKGTPPWDLDHPQPAFEALIKNGEIKPGRALDIGCGRGENAIILAMNGCDVIGIDLAENAISDAKAKATERHVKVKFVVEDALQMNRLFEEGEFDVVIDSGLFHVMMDEQRRVFAQQVHRVLREGGKYFMLCFSDKEPGEYELPRRLSKAEIESTFSPVFDITYIKEAVFDSLLSPSRRKAYLLSATRSLEHHHHHH”, “failed”; for “MPYAIDFGTTNTVIARWNEATRQGNLIDLPSLSHPLGDSGPLVPSLLYVENAALGQVAIAREVLDRGRDISTDTRFFKNFKRGIGVAVQGFLPQLDGHTLSLETLGQWYLDKLIRILTEQEGQGPDCLALTVPVDSFESYRHWLSHTCRSWGVEEVRLVDEPTAAALGYGVGDASQILVLDFGGGTVDFSWVQLGDRGQKGRSGFLLKWGGILGGSKAEEKSALAKVLAKAGANLGGSDIDYWISEYFTEAQGLQVSPWIRRLAERLKIALGEAEEATEVYFDDQALESYEFQLRRSDLTEILQQRQFFERLTALWEQVQQTAQRRGLTPANLDAVLVVGGTSQLPMVQDWINAQFPAGKIRNQQPFGAIALGALQIYQGREVQDYLYHSYGVRYWNRRKNSHNWHPIIKNGQTYPMAEPIELTLGASLDNQPSIELIVGELGSSIGATEVYFDGNQLITRVLENQAFTVQPLNDRNGARQIAQLSPPGVPGGDRIKVKFWVDDQRYLRLTVEDLLQQKLLLENQVVAQLRLEHHHHHH”, “failed”.
As to “MAAPLCVKVEFGGGAELLFDGVKKHQVALPGQEEPWDIRNLLVWIKKNLLKERPELFIQGDSVRPGILVLINDADWELLGELDYQLQDQDSILFISTLHGG”, the protein production result is reported as “not failed”.
For the sequence “EWQHRGYGRELLAEAERIAREEFDAKKMLIISGVGVREYYRKFGYRKDGPYVSKRLDKRYADYKRTNRFDAELNT”, the protein production entry is recorded as “failed”.
